Measurements reported in the DeepSol protein solubility set.

Assay: soluble on expression in E. coli; label from the status in PepcDB or PDB records

Sequence | soluble on expression in E. coli
MGSDKIHHHHHHRECVQTSLSWRNDTTGIWETAGWWNSANVLTATIRYGAVTKDPAIPSVIEDVFEKARHYQVGVDSTGTPRYCDNFINDYYDDEGWWALAWIEASKLTGEKKYLDMAEIIFDDMTTGWSDACGGGIFWKKNPLHYKNSIANNLFSLTAIRLYKATQNPAYLDWFKKNVDWYMRTGMINTNIYQIEDGTKDDCTPNRNAHYTYNQGVAIAVLAEMYLQTNDKSYLELAEKIADATITTQLITDEGILREMKPEIDDSNDGVQFKGIFIRHLAFLYEVTKNPAYKDFILKNAESIITKDYDPTSKSFGCYWYGPFHKENSAANACALECVIEAYDLTK | not soluble
AQPGAEVLAIDGITVKDTRGIETVRDLSLSVKAGEIVGIAGVDGNGQSELIEAVTGLRKTDSGTITLNGKQIQNLTPRKITESGIGHIPQDRHKHGLVLDFPIGENILLQSYYKKPYSALGVLHKGEMYKKARSLITEYDVRTPDEYTHARALSGGNQQKAIIGREIDRNPDLLIAAQPTRGLDVGAIEFVHKKLIEQRDAGKAVLLLSFELEEIMNLSDRIAVIFEGRIIASVNPQETTEQELGLLMAGSTQKEAGKANG | not soluble
MGAGESSMALEKHLFDLKFAAKQLEKNAQRCEKDEKVEKDKLTAAIKKGNKEVAQVHAENAIRKKNEAVNYIKMAARIDAVAARVQTAATQKRVTASMSGVVKAMESAMKSMNLEKVQQLMDRFERDFEDLDVTTKTMEKTMDGTTVLNAPKSQVDALIAEAADKAGIELNQELPSNVPTALPTGTQAVSEDKDLTERLAALRNM | not soluble
ARKLFVLDTNVLLHDPSSLFRFEEHDIFLPMMTLEELDHQKKGMSEVARNARQVSRSLDSLVQDADNLDDGLALNALGNKDATGRLMFQTTAIHSTLPSDLPMGKADNQILGVVRALQERHPQREVVLVSKDINMRLKARALGMAAEDYYNDHVLEDTDLMYS | not soluble
GSMENTDVFLGLHDFLERMRKPSAGDFVKSIKSFIVSFSNNAPDPEKDCAMVQEFFSKMEAAFRAHPLWSGCSEEELDSAGDGLEKYVMTKLFTRVFASNTEEVIADEKLFQKMSLVQQFISPENLDIQPTFQNESSWLLAQKELQKINMYKAPRDKLVCILNCCKVINNLLLNASIASNENAPGADEFLPVLIYVTIKANPPQLHSNLLYIQRYRRESKLVGEAAYFFTNILSAESFISNIDAKSISLDEAEFEKNMESARARISG | soluble
MGSDKIHHHHHHAVTTGNTPVTAEFAGGTLPDGNGVPNTVDPDPTKPNSNFDLLFIPREYDFGKLSISDDLTKPIPNKTDEGRAGNVESVGVGDIRGSKEGWHVTAQSTGMKLGEESLEGSITTGAMFLYPLIYNEETKTYDYQSADLADPVTKPETVDTTAFSIALGGDAVLLANATAGKGQGLWQFSFRPYLNITTPAYNIKAGAYTGNITWNLVAGPSI | not soluble
GMNQRDVILDCEKKLLTAIQNNDVESLEVLLHDDLLFIIPSGETVTKETDIAAYSSGKIALRAVVPSDYIIRIIHDTVVVSVNIEIKGEYMEHTLDNTFRYLRVWKLFDGNWKVIAGSCTAIG | soluble
MSLSPGKKRAMINRDHPKLSISQQCKLVSLSRSAFYYTPAGIDADTLSMMKEIDRVFTKYPFFGSRQIAAYLRREGIVVGRHRVRRLMAKMGLEAVYKRPRTSQPHPQHPVFPYLLRKMVIDRPNQVWCADITFVPVRNGFLYLVAIMDWATRKVLSWRLSNTMHADFCVEALSEAIARYGPPEIMNTDQGSQFTGSAWITTLTEAGVRISMDGRGRYLDNIFIERLWRSLKQEAIYLEEINEGFRARRVIKGWMAFYNTSRPHSALDRQTPDDAYWAGLEERHAAEGHHHHHH | not soluble
MFTGLVEETGEILKVEEGPFLRVYIGARKVLKDLKVGDSVAVDGACLTAVTVEEGGFWVELAQETLRRTAPTWRVGHRPNLERALKVGDRLGGHFVTGHVDGVARLWEVREAPGAKDFYFLPPKALAPYIAEKGSVALNGVSLTVAGLTGEAFWVTLIPHTLEVTNLGRLRVGDGVNLEVDLIARYVARLLGRA | soluble
MEAHGSARLSRKRKRDGSNGEPEEGEKPLKFKRCTVGLKYPAPYADQLESMEDKQYQRVTIEEARRGTPPDRPVRVYADGIFDMFHSGHARALMQAKCLFPNTHLIVGVCSDDLTHKLKGFTVMNEDERYDAVSHCRYVDEVVRNAPWTLTPEFLTKHRIDFVAHDDIPYSSADSDDVYKHIKDAGMFAPTQRTEGISTSDIITRIVRDYDVYVRRNLQRGYTAKELNVSFINEKKYNLQERVDKVKKKVKDVEEKSKEFVQKVEEKSIDLIQKWEEKSREFIGNFLQMFGPEGALKHMLKEGKGRMLQAISPRQSPSSSPTRERSPSPTFRLPFFNKTSTPSSPSSHHSSALSGYTYAARGQAISEDEEDDED | soluble
MSSSSGNQNSKEHKVAVTHDLGKTNVPEHPKRVVVLELGFIDTLLDLGITPVGVADDNKAKQLINKDVLKKIDGYTSVGTRSQPSMEKIASLKPDLIIADTTRHKKVYDQLKKIAPTIALNNLNADYQDTIDASLTIAKAVGKEKEMEKKLTAHEEKLSETKQKISANSQSVLLIGNTNDTIMARDENFFTSRLLTQVGYRYAISTSGNSDSSNGGDSVNMKMTLEQLLKTDPDVIILMTGKTDDLDADGKRPIEKNVLWKKLKAVKNGHVYHVDRAVWSLRRSVDGANAILDELQKEMPAAKKLEHHHHHH | not soluble
MGSDKIHHHHHHMWFCFLKSGFIIIKQILSTPFFSYKYNIKILINFKLISNIIEHKMLEYANKITLKGDNIMKFAVITDIHGNFDALQTVLDDIDSRDDIEKIYNLGDNIGIGHETNKVLDTIFDRDDMEMIAGNHDEAIMSLVNGTPYPEDLKGKFYEHHQWIEGHLDESYYDEINQLPRYIEMTIKGKKILFIHYEIENDKMSAPIDEQPFAPITKDDEQAISELFKDKEADLILFGHNHRLHMFDDKSTVYFNPGSVGLNNGSNTVYGIITVNEKGISVERVKLAYNNEEFLAGFEEKQVPAREFIFKNFI | not soluble
MTHETDKIVEIERQKIEVENERFAIEDECCSIKKRIDVLDGVAAQISSGPASMGFSGQCSSSIPASGSQPHLTRRHTVTGQEPNPLAMSQNQMSTGFFFNHESLDNLAKFLGYYGE | not soluble
GPGSMMEATERRRKRERNERNDERRDDCEVLAKTDEKRTIVEELFQRLQSLDHTHMELEARLCRRAEVSDKSGSTSSEREWKGRRARKTRTEVMPGVAEEDYKRIEEFCLDKGKEGSVTRSTTRDVSFGQWRYTYTSGKPSECIACIRKERLFVLDVPVPSGAYDIRFSACTEITGELPSPNFAPTRGYTRHKDRLSVTDGLFRYDLTRVRDKHTTGYEVEVEFLLKDNDEKKITDSHVEELVGRALSLATLTASEG | soluble
MVITLSRLYVHPVKSMRGLQLSHAQVSRSGLAFDRVFMITEPDGMFITARQYPKMVMFTPALMADGLYLTAPDGESASIRFNDFLANPAPTEVWGNHFTALIAPEAINSWLSGYFQRDVQLRWVGTELTRRVKPLPEVPLSFADGFPYLLINEASFKDLQQRCPASIKLEQFRPNLVITGTTAFAEDCWQVIRIGDITFDLVKPCSRCVLTTVSVERGQKHPAGEPLRTLQTFRTAENGDVDFGQNMVARNSGIIRVGDEVEVLITKPPRPYGAGAVVESLSAPQDQSKTVSIEYNGIRFNGNNQQILLEQLEQQNIRIPYSCRAGICGSCRVTLLTGDVAALKKSAVGNDGTILCCSCIPKGDISLSGK | not soluble
MVPQTGRAARATRESGRQTRDALFTAATELFLEHGEGVPITQICAAAGAHPNQVTYYYGSKERLFVEVACAAVLRAGKRAEDDAATAETVGDYTEKLVGSLLGPGAPSVELFTSAMLMTGRRSELRDLITDTLRTLHSSGEVALIRTLMRTGWQLRAGIDVESKAFWSAIFGLVIQKTATGESFGYSLEEAVAVIFANLQIPETVRNTSID | soluble
MSLRMQDIERKVIEWLDQHSAKAIRLLKRLIGEKSTLGSEFNAQAVVLEKLRQFHMDIDVWEPSIKQLKQHPYFKSNRSDFHESPNIVAKKTGAGGGRSLILNGHIDVVPEGSVKDWKYEPYQAVEENGKIYGRGSTDMKGGNTALLFALEALHACDVKLKGDVLFQSVVDEECGGAGTLSAIMRGYRADGALIPEPTNMKLFIKQQGSMWFRITVKGLSAHGGTRYEGVSAIEKSMHVITAIQELEKVRNARISDPLYDNIPIPVPVNIGTISGGAWPSSVADRVVIEGRCGIAPHEKPEAVKLELENWLKDLEYHDEWFKRHPVQVEWFGAQWLPNDLPDDHPLISVLQSAYQKMKQTEPIIEASPWGTDGGLLYHAGDTPVIVFGPGETKTAHQANEYIEVEAMIESAKIIALFVMDWCGLHTDGEGHHHHHH | soluble
SKGRPQIDSSKATDKINPMDFTFVEINEAVKLVEMGVATPQDIDTAIKLGLNRPFGPFELAKQFGAEQIAKRLEELAKQFGKKIFEPAKTLKEGKLEELLKAGKAE | soluble
MEMDLPVSAIGFEGFEKRLEISFVEPGLFADPNGKGLRSLSKAQLDEILGPAECTIVDNLSNDYVDSYVLSE | soluble
MGSDKIHHHHHHMAFIKPEQQFNPDALHNLVIGIAADMGKHDSGMHHHHKAQLLYASAGCMRFSLADTQVVLPPTRAAWLPAGVEHHVTMRNVVAYRSLYFEPEAVASLPSEVTIFHVNPLLKALIDTMSYWPWNKPRYSQHNAFALFCEELENAKAENLALPLPQDKRLQTWLKQVLQQEMQPANLKEMAIEIGASERTISRIFSSQTGMAYQAWRQQWRLLSAIEQLAAGTSVAQAGFNLQFSSDSAFISFFKQYTGTTPAQYFK | not soluble
MSSSGNGRSNNDRADQLRREEQERKDRELAERLQREQSDDTPPAVARRGRNRAAARERASPYSRSRIRSTAGTSDAGPSSSSSVRGRGTRGTTSARRGRGSARGGEATMNRTRANQQISESPNRRRSTRQTRNPNPQMQFEGDRVQVRQGDEIRDITAETYFPDDDDDSDYTQSDNEEEEERNATITISSSESDADSEAESDHEERDMPRAFNPRGSYARSGRGPGGRGRVITPGRYRGSGQHNISADYIRDLLHSRIYPDNPRRDPLYRSGLNNEDESDPENVDADSDDDEAQSNGSSVIDLSDDDDVLIIGGRGAVHADRNHIRQPIFDEDRVMYNHELELYHDEEEYIVPAAKPVSAGGKLVEPDSTWGDCTMCSNPPIKPQGCKKCLQFLGCTDCVRRWYAARKGSMEGSSCPLCRAPWTGRAGVLMMTTIQKNVKKAGITSANTSSDSSLPSTSSLPNN | not soluble
MKKIDSAVAVEPAATVPKGRKNNPEKTREDILKAAVAEFVAHGLTGARVDAIAERTKTSKRMIYYYFGSKEQLYVEVLEKLYGAIRNTESELNLGELEPVEAIHRVVEFTFDHHDSNVDFVRIVCIENIHNGENVKQSDTIQAKSQNIIRALDGILRRGEASGLFRDGVHPVDLHLMISSFCFYRISNRHTFSEIFQIELWSEEVKQRHKAMICDAVLRYLKR | not soluble
MKIITAINEDEWASITHIATTVHLKKDQLIIRKGDPGNKEVFLVNGIVRGFITDENGNEKSTSFFEEGEFMSTQALRTKKGISLYNYQALCRTKLLIFDSKQLKDLLSATKKLSEIGKAIKERELTRLMNRDDCLMQVKALDKYQKFITYYPALERQISQRYIASYLGITPVSLSRLKKSMIVRTDNN | not soluble
MTRPDNEPARLRSVAENLAAEAAAFVRGRRAEVFGISRAGDGDGAVRAKSSPTDPVTVVDTDTERLLRDRLAQLRPGDPILGEEGGGPADVTATPSDRVTWVLDPIDGTVNFVYGIPAYAVSIGAQVGGITVAGAVADVAARTVYSAATGLGAHLTDERGRHVLRCTGVDELSMALLGTGFGYSVRCREKQAELLAHVVPLVRDVRRIGSAALDLCMVAAGRLDAYYEHGVQVWDCAAGALIAAEAGARVLLSTPRAGGAGLVVVAAAPGIADELLAALQRFNGLEPIPDALEHHHHHH | soluble
